Test results reported in US6617117B1, “MAP kinases: polypeptides, polynucleotides and uses thereof” (Medical Research Council, priority 1996, dated 2003).

T1: SAPK3 (Rattus norvegicus, UniProt Q63538)
T1 sequence (Q63538 1-367): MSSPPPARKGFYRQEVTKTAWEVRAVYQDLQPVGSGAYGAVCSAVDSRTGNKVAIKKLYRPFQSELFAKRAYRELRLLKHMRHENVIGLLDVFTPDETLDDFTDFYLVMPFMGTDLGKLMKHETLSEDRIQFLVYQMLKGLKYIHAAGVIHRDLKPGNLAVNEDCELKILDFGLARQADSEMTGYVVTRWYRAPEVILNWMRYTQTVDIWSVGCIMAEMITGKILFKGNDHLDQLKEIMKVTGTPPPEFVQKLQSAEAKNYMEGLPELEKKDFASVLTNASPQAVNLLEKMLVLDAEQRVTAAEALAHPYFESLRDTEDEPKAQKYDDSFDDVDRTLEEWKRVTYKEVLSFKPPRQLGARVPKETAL

T2: SAPK4 (Homo sapiens, UniProt O15264)
T2 sequence (O15264 1-365): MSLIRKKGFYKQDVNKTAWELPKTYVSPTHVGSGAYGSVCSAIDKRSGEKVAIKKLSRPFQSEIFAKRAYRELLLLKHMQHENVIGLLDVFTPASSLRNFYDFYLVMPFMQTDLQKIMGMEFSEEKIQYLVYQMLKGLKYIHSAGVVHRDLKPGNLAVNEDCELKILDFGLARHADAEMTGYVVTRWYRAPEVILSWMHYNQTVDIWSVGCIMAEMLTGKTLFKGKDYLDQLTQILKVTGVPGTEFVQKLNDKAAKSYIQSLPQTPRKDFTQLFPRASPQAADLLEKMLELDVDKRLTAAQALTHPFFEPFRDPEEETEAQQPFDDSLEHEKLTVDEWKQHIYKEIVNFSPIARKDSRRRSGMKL

B1: SKK3: SAP kinase kinase 3, upstream activator of SAPK2a, SAPK2b, SAPK3 and SAPK4 (protein)
chain: MSQSKGKKRNPGLKIPKEAFEQPQTSSTPPRDLDSKACISIGNQNFEVKADDLEPIMELGRGAYGVVEKMRHVPSGQIMAVKRIRATVNSQEQKRLLMDLDISMRTVDCPFTVTFYGALFREGDVWICMELMDTSLDKFYKQVIDKGQTIPEDILGKIAVSIVKALEHLHSKLSVIHRDVKPSNVLINALGQVKMCDFGISGYLVDSVAKTIDAGCKPYMAPERINPELNQKGYSVKSDIWSLGITMIELAILRFPYDSWGTPFQQLKQVVEEPSPQLPADKFSAEFVDFTSQCLKKNSKERPTYPELMQHPFFTLHESKGTDVASFVKLILGD
B2: EGF: growth factor stimulus from Boehringer (protein, UniProt P01133 23-1207, looked up)
Pro-epidermal growth factor: PQHWSCPEGTLAGNGNSTCVGPAPFLIFSHGNSIFRIDTEGTNYEQLVVDAGVSVIMDFHYNEKRIYWVDLERQLLQRVFLNGSRQERVCNIEKNVSGMAINWINEEVIWSNQQEGIITVTDMKGNNSHILLSALKYPANVAVDPVERFIFWSSEVAGSLYRADLDGVGVKALLETSEKITAVSLDVLDKRLFWIQYNREGSNSLICSCDYDGGSVHISKHPTQHNLFAMSLFGDRIFYSTWKMKTIWIANKHTGKDMVRINLHSSFVPLGELKVVHPLAQPKAEDDTWEPEQKLCKLRKGNCSSTVCGQDLQSHLCMCAEGYALSRDRKYCEDVNECAFWNHGCTLGCKNTPGSYYCTCPVGFVLLPDGKRCHQLVSCPRNVSECSHDCVLTSEGPLCFCPEGSVLERDGKTCSGCSSPDNGGCSQLCVPLSPVSWECDCFPGYDLQLDEKSCAASGPQPFLLFANSQDIRHMHFDGTDYGTLLSQQMGMVYALDHDPVENKIYFAHTALKWIERANMDGSQRERLIEEGVDVPEGLAVDWIGRRFYWTDRGKSLIGRSDLNGKRSKIITKENISQPRGIAVHPMAKRLFWTDTGINPRIESSSLQGLGRLVIASSDLIWPSGITIDFLTDKLYWCDAKQSVIEMANLDGSKRRRLTQNDVGHPFAVAVFEDYVWFSDWAMPSVMRVNKRTGKDRVRLQGSMLKPSSLVVVHPLAKPGADPCLYQNGGCEHICKKRLGTAWCSCREGFMKASDGKTCLALDGHQLLAGGEVDLKNQVTPLDILSKTRVSEDNITESQHMLVAEIMVSDQDDCAPVGCSMYARCISEGEDATCQCLKGFAGDGKLCSDIDECEMGVPVCPPASSKCINTEGGYVCRCSEGYQGDGIHCLDIDECQLGEHSCGENASCTNTEGGYTCMCAGRLSEPGLICPDSTPPPHLREDDHHYSVRNSDSECPLSHDGYCLHDGVCMYIEALDKYACNCVVGYIGERCQYRDLKWWELRHAGHGQQQKVIVVAVCVVVLVMLLLLSLWGAHYYRTQKLLSKNPKNPYEESSRDVRSRRPADTEDGMSSCPQPWFVVIKEHQDLKNGGQPVAGEDGQAADGSMQPTSWRQEPQLCGMGTEQGCWIPVSSDKGSCPQVMERSFHMPSYGTQTLEGGVEKPHSLLSANPLWQQRALDPPHQMELTQ
modifications: Pro-epidermal growth factor
notes: growth factor stimulus from Boehringer

How the values were obtained:
[1] = molecular target: T1, SAPK3; assay: Co-transfection of SAPK3 with SKK3 into COS cells (FIG. 14); format: cell-based; design: expressed in transfected cells; host or cells: COS-1 cells (vector pSG5), alone or with human SKK3 or MEK kinase
Description: FIG. 14. SKK3 activates SAPK3 in transfected cells. COS-1 cells were transiently transfected with DNA expressing SAPK3 or co-transfected with either SKK3 or MEK kinase (MEKK). Cells were stimulated in DMEM for 15 min or with 0.5 M sorbitol. After stimulation and lysis, SAPK3 was immunoprecipitated from the cell lysates using an anti-SAPK3 antibody raised against the C-terminal 16 residues of SAPK3 (see Methods) and activity measured using MBP as the substrate.
Cell culture and transient transfections. 293, KB and COS-7 cells were cultured in Dulbecco's modified Eagles' Medium (DMEM) supplemented with 10% foetal calf serum, at 37° C., in an atmosphere of 5% CO2. Transfections of 293 cells were carried out using the calcium-phosphate method. Cells were split to a density of 2×106 per 10 cm dish, and after 12 h at 37° C., 10 μg of plasmid DNA in 0.45 ml of sterile water was added to 50 μl of sterile CaCl2, and then 0.5 ml of sterile buffer composed of 50 mM N,N-bis[2-hydroxyethyl]-2-aminoethanesulphonic acid/HCl pH 6.96, 0.28 M NaCl and 1.5 mM Na2HPO4 was added. The resulting mixture was vortexed for 1 min, allowed to stand at room temperature for 20 min, and then added dropwise to a 10 cm dish of 293 cells. The cells were placed in an atmosphere of 3% CO2 for 16 h at 37° C., then the medium was aspirated and replaced with new DMEM containing 10% foetal calf serum. […]

[2] = molecular target: T2, SAPK4; assay: Co-transfection of SAPK4 with SKK3 into COS cells; format: cell-based; design: expressed in transfected cells; host or cells: COS1 cells, co-transfected with human SKK3; details: n=3
Description: For bacterial expression, the open reading frames of human cDNA clones hSAPK2B2, hSAPK32 and hSAPK412 were amplified by PCR and subcloned as EcoRI fragments into expression vector pGEX4T-1 (Pharmacia), followed by transformation into E. coli strain BL21(DE3). The transformed bacteria were grown to an absorbance of 0.6 at 600 nm and induced with 0.4 mM isopropyl-1-thio-β-galactopyranoside (IPTG). […] For expression of c-myc epitope-tagged SAPK4, PCR was used to introduce the nucleotide sequence encoding the amino acid sequence […] (SEQ. ID. NO: 4) at the carboxy-terminus of SAPK4, followed by a stop codon. The resulting EcoRI/NotI fragment was subcloned into the mammalian expression vector pcDNA3.1 (Invitrogen). […] PCR fragments were verified by DNA sequencing. Transfections into COS1 cells were done as described in Example 4 and Cuenda et al, 1997.
We have shown previously that SKK3 accounts for 95% and SKK2 for 5% of the SAPK2a activator detected after Mono S chromatography of lysates from KB cells that have been stressed in several ways or stimulated with IL1 (Cuenda et al, 1996; Meier et al, 1996). […] SKK3 was also the only activator of SAPK4 after subjecting KB cells to osmotic stress using sorbitol (data not shown). Further evidence that SKK3 can activate SAPK4 in vivo was obtained by co-transfection into COS cells. […]

[3] = molecular target: T1, SAPK3; assay: Activation of transfected myc epitope-tagged SAPK3 in KB and 293 cells, immunoprecipitation and MBP assay; format: cell-based, human; design: expressed in transfected cells; host or cells: human KB and 293 cells (vector pSG5); details: FIG. 11A
Description: FIG. 11. SAPK3 is activated by cytokines and cellular stresses in KB and 293 cells. KB cells (A) or 293 cells (B) were transiently transfected with a DNA construct expressing a myc epitope-tagged SAPK3. Cells in DMEM were stimulated for 15 min with 0.5 M sorbitol (an osmotic shock), 20 ng/ml IL-1α, 100 ng/ml TNFa, 0.5 mM sodium arsenite (a chemical stress), 100 ng/ml of EGF or 300 ng/ml TPA, or for 30 min with […] anisomycin or 10 min with 100 ng/ml IGF-1. UV-C irradiation of cells was carried out at 60 J/m2 (KB cells) or 200 J/m2 (293 cells) and the cells then left for a further 30 min at 37° C. before lysis. The myc epitope-tagged SAPK3 was immunoprecipitated from cell lysates using the 9E10 monoclonal antibody and assayed with MBP as substrate. […] After UV-C irradiation, SAPK3 activity in the extracts was 0.18 U/mg (KB cells) and 0.1 U/mg (293 cells).
Cell culture and transient transfections. 293, KB and COS-7 cells were cultured in Dulbecco's modified Eagles' Medium (DMEM) supplemented with 10% foetal calf serum, at 37° C., in an atmosphere of 5% CO2. Transfections of 293 cells were carried out using the calcium-phosphate method. […]

Row | Molecule | Elevation of SAPK3 activity by coexpression [1] | Greater activation of transfected SAPK3 by osmotic shock where cotransfected ([1]; osmotic shock) | Elevation of SAPK4 activity by co-expression [2] | Activation of transfected SAPK3 (in words) [3]
1 | B1 | 10 fold | 30 fold | 12.5±0.63 fold | –
2 | B2 | – | – | – | more weakly
